Results on two molecules are retold here after doi:10.64898/2025.12.16.694598.

Test in all cases: BLI
On the technique in general: Biolayer interferometry detects binding as a change in optical thickness at a sensor tip.

The target in data set [1] is Recombinant histidine-tagged Ewing Sarcoma Breakpoint Region 1 (EWSR1) protein (UniProt Q01844).
The target in data set [2] is CHIKV nsP2 (Chikungunya virus; strain of the nsP2 …, UniProt Q8JUX6 536-1333).
Data set [3] has as its target EWSR1 (UniProt Q01844 1-656).

Usually Kd stands for the free concentration of one partner at which half of the binding sites on the other are occupied at equilibrium, for simple one-to-one binding.

Chain of EWSR1 (Q01844 whole entry): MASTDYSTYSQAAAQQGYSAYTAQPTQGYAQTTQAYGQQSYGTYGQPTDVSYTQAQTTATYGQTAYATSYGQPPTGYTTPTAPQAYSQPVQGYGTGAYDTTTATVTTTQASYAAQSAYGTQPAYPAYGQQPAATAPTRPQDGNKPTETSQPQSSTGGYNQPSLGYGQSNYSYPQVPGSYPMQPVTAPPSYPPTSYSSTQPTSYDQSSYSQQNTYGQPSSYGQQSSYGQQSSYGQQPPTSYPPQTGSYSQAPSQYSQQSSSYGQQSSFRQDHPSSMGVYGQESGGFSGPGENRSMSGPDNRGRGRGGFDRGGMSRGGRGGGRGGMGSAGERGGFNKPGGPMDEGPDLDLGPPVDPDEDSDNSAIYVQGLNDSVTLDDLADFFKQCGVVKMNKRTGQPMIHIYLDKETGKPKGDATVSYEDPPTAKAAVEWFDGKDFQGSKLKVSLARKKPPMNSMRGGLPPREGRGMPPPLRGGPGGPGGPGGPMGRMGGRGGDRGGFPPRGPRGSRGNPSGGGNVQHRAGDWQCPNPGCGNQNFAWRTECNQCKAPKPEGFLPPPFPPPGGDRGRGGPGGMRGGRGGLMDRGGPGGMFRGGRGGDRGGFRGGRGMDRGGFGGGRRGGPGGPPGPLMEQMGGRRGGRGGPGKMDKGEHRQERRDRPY
Chain of Recombinant histidine-tagged Ewing Sarcoma Breakpoint Region 1 (EWSR1) protein (Q01844 whole entry): as above
Chain of Chikungunya virus non-structural protein 2 (CHIKV nsP2), full-length recombinant (Q8JUX6 536-1333): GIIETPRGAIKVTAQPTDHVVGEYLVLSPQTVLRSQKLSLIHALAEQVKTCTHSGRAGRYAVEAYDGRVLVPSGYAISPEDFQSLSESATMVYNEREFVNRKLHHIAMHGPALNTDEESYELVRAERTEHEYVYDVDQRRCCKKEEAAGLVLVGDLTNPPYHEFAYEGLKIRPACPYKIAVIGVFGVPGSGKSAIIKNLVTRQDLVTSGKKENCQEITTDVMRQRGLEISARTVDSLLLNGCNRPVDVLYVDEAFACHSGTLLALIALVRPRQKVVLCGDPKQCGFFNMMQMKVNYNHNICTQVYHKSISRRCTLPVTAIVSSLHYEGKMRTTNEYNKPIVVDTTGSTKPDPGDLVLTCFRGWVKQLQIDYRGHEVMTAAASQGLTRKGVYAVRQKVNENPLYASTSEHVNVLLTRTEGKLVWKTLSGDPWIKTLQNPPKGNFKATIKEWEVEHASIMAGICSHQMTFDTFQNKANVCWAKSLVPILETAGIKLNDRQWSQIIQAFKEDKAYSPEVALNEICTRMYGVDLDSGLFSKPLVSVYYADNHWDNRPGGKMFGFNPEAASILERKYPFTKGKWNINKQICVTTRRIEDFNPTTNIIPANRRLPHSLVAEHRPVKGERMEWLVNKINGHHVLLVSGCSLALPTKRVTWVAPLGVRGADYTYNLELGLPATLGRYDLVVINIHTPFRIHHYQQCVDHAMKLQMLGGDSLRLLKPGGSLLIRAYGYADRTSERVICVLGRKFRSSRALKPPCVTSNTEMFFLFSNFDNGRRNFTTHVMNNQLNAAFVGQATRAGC
Chain of CHIKV nsP2 (Q8JUX6 536-1333): as above

As to “Chikungunya virus non-structural protein 2 (CHIKV nsP2), full-length recombinant (from UniProt Q8JUX6) (enzyme)”, the Kd in data set [1] amounted to 716 nM.

As for CCGAACCCACAGGGACGUAGGAGAUGUUAUUUUGUUUUUAAUAUUUC (ssRNA) [3NCR48], the figures for the Kd in data set [2] and in data set [3] were 92.9 ± 1.6 nM and 91.4 ± 0.37 nM, respectively.
